Measurements reported in the supplement of paper PMC9112550, “Optimization of the antimicrobial peptide Bac7 by deep mutational scanning” (BMC Biology, 2022).

Test system: Escherichia coli TOP10
Assay: shrunken log2 fold change of peptide-encoding DNA abundance (4.5 h post-induction vs induction); higher = less antimicrobial activity (less host growth inhibition)
Settings: time post-induction: 4.5 h; library: site-saturation at positions 5, 18, 19, 20
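Note: peptides expressed intracellularly from a pBAD plasmid library in pooled LB shake-flask culture, induced with 0.3% L-arabinose, DNA abundance read by NGS, three biological replicates, DESeq2 with apeglm shrinkage.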

Row | Sequence | shrunken log2 fold change
1 | RRIRVRPPRLPRPRPRPHNLPRP | -0.356
2 | RRIRVRPPRLPRPRPRPHNWPRP | -0.0818
3 | RRIRVRPPRLPRPRPRPHQEPRP | 0.113
4 | RRIRVRPPRLPRPRPRPHQSPRP | -0.23
5 | RRIRVRPPRLPRPRPRPHRQPRP | -0.384
6 | RRIRVRPPRLPRPRPRPHVAPRP | -0.0516
7 | RRIRVRPPRLPRPRPRPHWHPRP | -0.0411
8 | RRIRVRPPRLPRPRPRPHYHPRP | -0.397
9 | RRIRVRPPRLPRPRPRPIAAPRP | 0.454
10 | RRIRVRPPRLPRPRPRPICTPRP | -0.00144
11 | RRIRVRPPRLPRPRPRPIEAPRP | -0.00729
12 | RRIRVRPPRLPRPRPRPIEYPRP | -0.05
13 | RRIRVRPPRLPRPRPRPIFVPRP | -0.0998
14 | RRIRVRPPRLPRPRPRPIGEPRP | 0.0407
15 | RRIRVRPPRLPRPRPRPIGFPRP | 0.187
16 | RRIRVRPPRLPRPRPRPIGVPRP | -0.01
17 | RRIRVRPPRLPRPRPRPIHPPRP | 0.0943
18 | RRIRVRPPRLPRPRPRPIHQPRP | -0.166
19 | RRIRVRPPRLPRPRPRPIIEPRP | -0.087
20 | RRIRVRPPRLPRPRPRPILPPRP | -0.331
21 | RRIRVRPPRLPRPRPRPILQPRP | -0.399
22 | RRIRVRPPRLPRPRPRPILWPRP | 0.0127
23 | RRIRVRPPRLPRPRPRPIMRPRP | 0.0562
24 | RRIRVRPPRLPRPRPRPINHPRP | -0.464
25 | RRIRVRPPRLPRPRPRPINKPRP | -0.613

Row | Sequence | shrunken log2 fold change
26 | RRIRVRPPRLPRPRPRPIPPPRP | -0.2
27 | RRIRVRPPRLPRPRPRPIQIPRP | -1.33
28 | RRIRVRPPRLPRPRPRPIQPPRP | 0.0215
29 | RRIRVRPPRLPRPRPRPIQSPRP | -0.177
30 | RRIRVRPPRLPRPRPRPISLPRP | -0.0572
31 | RRIRVRPPRLPRPRPRPISTPRP | -0.112
32 | RRIRVRPPRLPRPRPRPITFPRP | -0.0498
33 | RRIRVRPPRLPRPRPRPITLPRP | 1.44
34 | RRIRVRPPRLPRPRPRPIVQPRP | -0.223
35 | RRIRVRPPRLPRPRPRPIWEPRP | -0.00136
36 | RRIRVRPPRLPRPRPRPIWWPRP | 1.44
37 | RRIRVRPPRLPRPRPRPIYNPRP | -0.675
38 | RRIRVRPPRLPRPRPRPKAEPRP | -0.00229
39 | RRIRVRPPRLPRPRPRPKARPRP | 0.295
40 | RRIRVRPPRLPRPRPRPKAWPRP | 0.0531
41 | RRIRVRPPRLPRPRPRPKCYPRP | 0.0107
42 | RRIRVRPPRLPRPRPRPKDMPRP | -0.272
43 | RRIRVRPPRLPRPRPRPKEYPRP | -0.282
44 | RRIRVRPPRLPRPRPRPKGDPRP | 0.275
45 | RRIRVRPPRLPRPRPRPKGEPRP | -0.0112
46 | RRIRVRPPRLPRPRPRPKGMPRP | 0.109
47 | RRIRVRPPRLPRPRPRPKGQPRP | 0.147
48 | RRIRVRPPRLPRPRPRPKHRPRP | 0.356
49 | RRIRVRPPRLPRPRPRPKIQPRP | -0.0896
50 | RRIRVRPPRLPRPRPRPKKLPRP | -0.0765

Row | Sequence | shrunken log2 fold change
51 | RRIRVRPPRLPRPRPRPKLCPRP | -0.0766
52 | RRIRVRPPRLPRPRPRPKLEPRP | 0.09
53 | RRIRVRPPRLPRPRPRPKLHPRP | -0.237
54 | RRIRVRPPRLPRPRPRPKNQPRP | -0.173
55 | RRIRVRPPRLPRPRPRPKPPPRP | 0.318
56 | RRIRVRPPRLPRPRPRPKPTPRP | 0.707
57 | RRIRVRPPRLPRPRPRPKRLPRP | 0.132
58 | RRIRVRPPRLPRPRPRPKRSPRP | 0.112
59 | RRIRVRPPRLPRPRPRPKRVPRP | 0.0344
60 | RRIRVRPPRLPRPRPRPKSMPRP | -0.362
61 | RRIRVRPPRLPRPRPRPKSPPRP | 0.272
62 | RRIRVRPPRLPRPRPRPKSRPRP | 0.0366
63 | RRIRVRPPRLPRPRPRPKTCPRP | 0.021
64 | RRIRVRPPRLPRPRPRPKTQPRP | 0.0766
65 | RRIRVRPPRLPRPRPRPKVPPRP | -0.00247
66 | RRIRVRPPRLPRPRPRPKWDPRP | 0.0182
67 | RRIRVRPPRLPRPRPRPKWMPRP | -0.0468
68 | RRIRVRPPRLPRPRPRPKWYPRP | -0.194
69 | RRIRVRPPRLPRPRPRPKYLPRP | -0.308
70 | RRIRVRPPRLPRPRPRPKYPPRP | -0.188
71 | RRIRVRPPRLPRPRPRPLACPRP | 0.214
72 | RRIRVRPPRLPRPRPRPLARPRP | 0.0756
73 | RRIRVRPPRLPRPRPRPLCEPRP | -0.131
74 | RRIRVRPPRLPRPRPRPLDNPRP | -0.0763
75 | RRIRVRPPRLPRPRPRPLDPPRP | -0.258

Row | Sequence | shrunken log2 fold change
76 | RRIRVRPPRLPRPRPRPLETPRP | -0.062
77 | RRIRVRPPRLPRPRPRPLFEPRP | 0.109
78 | RRIRVRPPRLPRPRPRPLFKPRP | -0.262
79 | RRIRVRPPRLPRPRPRPLFYPRP | -0.22
80 | RRIRVRPPRLPRPRPRPLGHPRP | 0.0376
81 | RRIRVRPPRLPRPRPRPLGPPRP | 0.342
82 | RRIRVRPPRLPRPRPRPLHYPRP | -0.088
83 | RRIRVRPPRLPRPRPRPLIDPRP | 0.119
84 | RRIRVRPPRLPRPRPRPLIPPRP | -0.406
85 | RRIRVRPPRLPRPRPRPLIQPRP | -0.351
86 | RRIRVRPPRLPRPRPRPLKRPRP | 0.0621
87 | RRIRVRPPRLPRPRPRPLKVPRP | -0.136
88 | RRIRVRPPRLPRPRPRPLLFPRP | -0.141
89 | RRIRVRPPRLPRPRPRPLNQPRP | -0.0183
90 | RRIRVRPPRLPRPRPRPLQYPRP | 1.72
91 | RRIRVRPPRLPRPRPRPLSDPRP | 0.0263
92 | RRIRVRPPRLPRPRPRPLSYPRP | -0.18
93 | RRIRVRPPRLPRPRPRPLVFPRP | -0.00523
94 | RRIRVRPPRLPRPRPRPLWCPRP | -0.303
95 | RRIRVRPPRLPRPRPRPLYCPRP | -0.596
96 | RRIRVRPPRLPRPRPRPMAAPRP | 0.287
97 | RRIRVRPPRLPRPRPRPMANPRP | 0.146
98 | RRIRVRPPRLPRPRPRPMASPRP | -0.01
99 | RRIRVRPPRLPRPRPRPMCHPRP | -0.0674
100 | RRIRVRPPRLPRPRPRPMDIPRP | -0.308

Row | Sequence | shrunken log2 fold change
101 | RRIRVRPPRLPRPRPRPMDRPRP | -0.308
102 | RRIRVRPPRLPRPRPRPMDVPRP | 0.0265
103 | RRIRVRPPRLPRPRPRPMEHPRP | 0.0534
104 | RRIRVRPPRLPRPRPRPMFVPRP | 0.00262
105 | RRIRVRPPRLPRPRPRPMGFPRP | 0.034
106 | RRIRVRPPRLPRPRPRPMHFPRP | -0.409
107 | RRIRVRPPRLPRPRPRPMIRPRP | -0.147
108 | RRIRVRPPRLPRPRPRPMKDPRP | -0.109
109 | RRIRVRPPRLPRPRPRPMKHPRP | -0.525
110 | RRIRVRPPRLPRPRPRPMKKPRP | 0.0174
111 | RRIRVRPPRLPRPRPRPMLFPRP | -0.329
112 | RRIRVRPPRLPRPRPRPMNMPRP | -0.426
113 | RRIRVRPPRLPRPRPRPMNTPRP | -0.312
114 | RRIRVRPPRLPRPRPRPMPQPRP | 0.311
115 | RRIRVRPPRLPRPRPRPMPTPRP | 0.282
116 | RRIRVRPPRLPRPRPRPMQMPRP | -0.0841
117 | RRIRVRPPRLPRPRPRPMRCPRP | 0.204
118 | RRIRVRPPRLPRPRPRPMREPRP | 0.689
119 | RRIRVRPPRLPRPRPRPMRQPRP | 0.0326
120 | RRIRVRPPRLPRPRPRPMRTPRP | -0.0139
121 | RRIRVRPPRLPRPRPRPMSPPRP | 0.0872
122 | RRIRVRPPRLPRPRPRPMVEPRP | 0.303
123 | RRIRVRPPRLPRPRPRPMVFPRP | 0.0611
124 | RRIRVRPPRLPRPRPRPMWTPRP | -0.0192
125 | RRIRVRPPRLPRPRPRPMYTPRP | -0.23

Row | Sequence | shrunken log2 fold change
126 | RRIRVRPPRLPRPRPRPNAAPRP | 0.0557
127 | RRIRVRPPRLPRPRPRPNADPRP | -0.00824
128 | RRIRVRPPRLPRPRPRPNAFPRP | -0.0289
129 | RRIRVRPPRLPRPRPRPNAGPRP | 0.0323
130 | RRIRVRPPRLPRPRPRPNCLPRP | -0.105
131 | RRIRVRPPRLPRPRPRPNCVPRP | -0.0661
132 | RRIRVRPPRLPRPRPRPNDGPRP | -0.133
133 | RRIRVRPPRLPRPRPRPNDNPRP | -0.481
134 | RRIRVRPPRLPRPRPRPNEEPRP | -0.00544
135 | RRIRVRPPRLPRPRPRPNFLPRP | -0.0134
136 | RRIRVRPPRLPRPRPRPNFNPRP | -0.143
137 | RRIRVRPPRLPRPRPRPNFWPRP | 0.137
138 | RRIRVRPPRLPRPRPRPNGTPRP | -0.356
139 | RRIRVRPPRLPRPRPRPNGYPRP | -0.199
140 | RRIRVRPPRLPRPRPRPNHAPRP | 0.0625
141 | RRIRVRPPRLPRPRPRPNHCPRP | -0.181
142 | RRIRVRPPRLPRPRPRPNHIPRP | -0.651
143 | RRIRVRPPRLPRPRPRPNIFPRP | -0.234
144 | RRIRVRPPRLPRPRPRPNIIPRP | -0.303
145 | RRIRVRPPRLPRPRPRPNILPRP | -0.426
146 | RRIRVRPPRLPRPRPRPNIRPRP | -0.664
147 | RRIRVRPPRLPRPRPRPNKDPRP | -0.448
148 | RRIRVRPPRLPRPRPRPNKSPRP | -0.348
149 | RRIRVRPPRLPRPRPRPNLHPRP | -0.239
150 | RRIRVRPPRLPRPRPRPNMAPRP | -0.38
